Biological target: T1, GST-RPS14 (UniProt P62263 1-151)
T1 construct: ribosomal protein RPS14; also called recombinant GST-RPS14
Test: pull-down; GST-RPS14 and His-hCINAP incubated in 1 ml NP-40 lysis buffer (50 mM Tris pH 8.0, 150 mM NaCl, 1% NP-40) for 2 h at 4 °C, then ATP or AMP-PNP at 1 mM with 5 mM MgCl2 for 1 h; GST beads 1 h; western blot
Settings: both partners purified

B1: His-hCINAP (enzyme)
chain: MLLPNILLTGTPGVGKTTLGKELASKSGLKYINVGDLAREEQLYDGYDEEYDCPILDEDRVVDELDNQMREGGVIVDYHGCDFFPERWFHIVFVLRTDTNVLYERLETRGYNEKKLTDNIQCEIFQVLYEEATASYKEEIVHQLPSNKPEELENNVDQILKWIEQWIKDHNS
notes: also called His6-hCINAP
- binding result: binds

Source: PMC4974663, “The ATPase hCINAP regulates 18S rRNA processing and is essential for embryogenesis and tumour growth” (Nature Communications, 2016)
